# Literature values as cited in paper PMC5973875.
# Read-outs that look alike come from different tables or passages of the source.
# Legend:
# [1] = molecular target: Protein S (Homo sapiens) (UniProt P07225)
# [2] = molecular target: Protein S (Homo sapiens) (UniProt P07225); remark: listed apart in the source
# Sequence of UniProt P07225 (P07225 42-676): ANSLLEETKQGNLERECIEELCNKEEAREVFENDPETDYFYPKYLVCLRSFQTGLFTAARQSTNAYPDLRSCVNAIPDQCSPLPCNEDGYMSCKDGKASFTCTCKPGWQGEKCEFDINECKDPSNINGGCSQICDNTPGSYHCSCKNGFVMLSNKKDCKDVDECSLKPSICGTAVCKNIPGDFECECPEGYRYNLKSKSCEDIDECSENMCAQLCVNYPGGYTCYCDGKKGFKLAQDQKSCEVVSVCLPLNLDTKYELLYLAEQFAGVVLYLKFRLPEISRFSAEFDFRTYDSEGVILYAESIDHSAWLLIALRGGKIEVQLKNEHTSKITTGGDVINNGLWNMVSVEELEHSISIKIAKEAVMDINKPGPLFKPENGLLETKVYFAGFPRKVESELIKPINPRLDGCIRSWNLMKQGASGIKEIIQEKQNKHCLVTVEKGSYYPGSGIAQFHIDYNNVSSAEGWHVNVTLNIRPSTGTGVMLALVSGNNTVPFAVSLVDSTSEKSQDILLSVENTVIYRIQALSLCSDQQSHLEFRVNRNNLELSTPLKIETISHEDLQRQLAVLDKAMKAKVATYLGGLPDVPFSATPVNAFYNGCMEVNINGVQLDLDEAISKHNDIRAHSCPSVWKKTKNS
Kd [1] [nM],Kd [2] [nM],Substance
0.1,–,C4BP (from UniProt P04003)
–,33,Factor Va heavy chain (from UniProt P12259)
